Substitutions are numbered along the chain they refer to. Numbers in names are those of the source.
B1: TET2 (Pyrococcus horikoshii OT3) (protein)
chain: MEVRNMVDYELLKKVVEAPGVSGYEFLGIRDVVIEEIKDYVDEVKVDKLGNVIAHKKGEGPKVMIAAHMDQIGLMVTHIEKNGFLRVAPIGGVDPKTLIAQRFKVWIDKGKFIYGVGASVPPHIQKPEDRKKAPDWDQIFIDIGAESKEEAEDMGVKIGTVITWDGRLERLGKHRFVSIAFDDRIAVYTILEVAKQLKDAKADVYFVATVQEEVGLRGARTSAFGIEPDYGFAIDVTIAADIPGTPEHKQVTHLGKGTAIKIMDRSVICHPTIVRWLEELAKKHEIPYQLEILLGGGTDAGAIHLTKAGVPTGALSVPARYIHSNTEVVDERDVDATVELMTKALENIHELKI
notes: full length, 353 residues per subunit, pET41c in E. coli BL21(DE3), no tag mentioned (heat step, Resource Q, Superdex 200), 39 kDa subunit, 468 kDa homododecamer, two Zn per active site
B2: TET2 (Pyrococcus horikoshii OT3; H123F) (protein)
chain: B1 chain with H123F
notes: as for B1
B3: TET2 (Pyrococcus horikoshii OT3; H123K) (protein)
chain: B1 chain with H123K
notes: as for B1
B4: TET2 (Pyrococcus horikoshii OT3; H123Y) (protein)
chain: B1 chain with H123Y
notes: as for B1
B5: TET2 (Pyrococcus horikoshii OT3; DEL120-138) (protein)
chain: MEVRNMVDYELLKKVVEAPGVSGYEFLGIRDVVIEEIKDYVDEVKVDKLGNVIAHKKGEGPKVMIAAHMDQIGLMVTHIEKNGFLRVAPIGGVDPKTLIAQRFKVWIDKGKFIYGVGASIFIDIGAESKEEAEDMGVKIGTVITWDGRLERLGKHRFVSIAFDDRIAVYTILEVAKQLKDAKADVYFVATVQEEVGLRGARTSAFGIEPDYGFAIDVTIAADIPGTPEHKQVTHLGKGTAIKIMDRSVICHPTIVRWLEELAKKHEIPYQLEILLGGGTDAGAIHLTKAGVPTGALSVPARYIHSNTEVVDERDVDATVELMTKALENIHELKI
notes: as for B1
B6: TET2 (Pyrococcus horikoshii OT3; DEL122-122/DEL126-126) (protein)
chain: MEVRNMVDYELLKKVVEAPGVSGYEFLGIRDVVIEEIKDYVDEVKVDKLGNVIAHKKGEGPKVMIAAHMDQIGLMVTHIEKNGFLRVAPIGGVDPKTLIAQRFKVWIDKGKFIYGVGASVPHIQPEDRKKAPDWDQIFIDIGAESKEEAEDMGVKIGTVITWDGRLERLGKHRFVSIAFDDRIAVYTILEVAKQLKDAKADVYFVATVQEEVGLRGARTSAFGIEPDYGFAIDVTIAADIPGTPEHKQVTHLGKGTAIKIMDRSVICHPTIVRWLEELAKKHEIPYQLEILLGGGTDAGAIHLTKAGVPTGALSVPARYIHSNTEVVDERDVDATVELMTKALENIHELKI
notes: as for B1

Substrate: CC(C)C[C@H](N)C(=O)Nc1ccc([N+](=O)[O-])cc1
Assay: purified protein
Type: biochemical, Pyrococcus horikoshii
Conditions: pH 7.5 (20 mM Tris, 100 mM NaCl), 50 °C, 2.8% DMSO, 0.1-6.4 mM substrate
[1] = Δloop mutant, loop printed as shortened to a two-residue β-turn and as lacking residues 120-138
[2] = mutant printed as Δ(122,126), loop shortened by one residue on each side of H123

Protein | Km [mM] | kcat [s⁻¹] | also measured
B1 | 3.2 ± 0.1 | 14.1 ± 1.7 | 
B2 | 14.4 ± 0.6 | 26.6 ± 4.1 | 
B3 | 17.0 ± 1.3 | 16.9 ± 3.6 | 
B4 | 13.8 ± 0.6 | 15.7 ± 2.7 | 
B5 |  |  | Km [1]: 1.3 ± 0.1 mM; kcat [1]: 1.7 ± 1.0 s⁻¹
B6 |  |  | Km [2]: 28.5 ± 2.3 mM; kcat [2]: 31.5 ± 8.1 s⁻¹
